T1: epitope peptide Cys-CE3C long (also: biotin label, site not given here)
T1 peptide: CSVNVDKQPKYEYSL

B1: humanized antibody h15H11 (IGHV7-4-1 Q43R, G44S, R94P / IGKV7-3 Y36F, V78M) (antibody, human IgG4 S228P, kappa, V domains shown)
VH: QVQLVQSGSELKKPGASVKVSCKASGYTFTDYNMHWVRQAPGRSLEWMGRINPKNGVINSNEKFKDRFVFSLDTSVSTAYLQISSLKAEDTAVYYCAPSYYGGNTDAYWGQGTLVTVSS
VL: DIVLTQSPASLAVSPGQRATITCRASESVDNYGISFMNWFQQKPGQPPKLLIYAASSQGSGVPARFSGSGSGTDFTLTINPMEANDTANYYCQQSKEFPWTFGGGTKVEIKR
notes: hIgG4Pro/hIgK; also called h15H11-WT; h15H11-wt
B2: h15H11-21 (antibody, human IgG4 S228P, kappa, V domains shown)
VH: B1 VH with D31E, N59L
VL: B1 VL with E27D, M37L
notes: hIgG4Pro/hIgK
B3: h15H11-11 (antibody, human IgG4 S228P, kappa, V domains shown)
VH: B1 VH with N59L, N104D
VL: B1 VL with E27D, M37L
notes: hIgG4Pro/hIgK
B4: h15H11-2 (antibody, human IgG4 S228P, kappa, V domains shown)
VH: B1 VH with N59L, N104D, T105D
VL: B1 VL with E27D, M37L
notes: hIgG4Pro/hIgK
B5: h15H11-9 (antibody, human IgG4 S228P, kappa, V domains shown)
VH: B1 VH with N59L, T105D
VL: B1 VL with E27D, M37L
notes: hIgG4Pro/hIgK
B6: h15H11-26 (antibody, human IgG4 S228P, kappa, V domains shown)
VH: B1 VH with N104D
VL: B1 VL with A25V, E27D, M37L
notes: hIgG4Pro/hIgK
B7: h15H11-19 (antibody, human IgG4 S228P, kappa, V domains shown)
VH: B1 VH with D31E, N104D
VL: B1 VL with E27D, M37L
notes: hIgG4Pro/hIgK
B8: h15H11-27 (antibody, human IgG4 S228P, kappa, V domains shown)
VH: B1 VH with N59L
VL: B1 VL with A25V, E27D, M37L
notes: hIgG4Pro/hIgK
B9: h15H11-17 (antibody, human IgG4 S228P, kappa, V domains shown)
VH: B1 VH with T105D
VL: B1 VL with E27D, M37L
notes: hIgG4Pro/hIgK
B10: h15H11-14 (antibody, human IgG4 S228P, kappa, V domains shown)
VH: B1 VH with N104D, T105D
VL: B1 VL
notes: hIgG4Pro/hIgK
B11: h15H11-3 (antibody, human IgG4 S228P, kappa, V domains shown)
VH: B1 VH with D31E, N59L, N104D, T105D
VL: B1 VL
notes: hIgG4Pro/hIgK
B12: h15H11-5 (antibody, human IgG4 S228P, kappa, V domains shown)
VH: B1 VH with D31E, N59L, N104D
VL: B1 VL with E27D, M37L
notes: hIgG4Pro/hIgK
B13: h15H11-13 (antibody, human IgG4 S228P, kappa, V domains shown)
VH: B1 VH with D31E, T105D
VL: B1 VL with E27D, M37L
notes: hIgG4Pro/hIgK
B14: h15H11-12 (antibody, human IgG4 S228P, kappa, V domains shown)
VH: B1 VH with D31E, N59L, N104D
VL: B1 VL
notes: hIgG4Pro/hIgK
B15: h15H11-8 (antibody, human IgG4 S228P, kappa, V domains shown)
VH: B1 VH with N59L, T105D
VL: B1 VL
notes: hIgG4Pro/hIgK
B16: h15H11-1 (antibody, human IgG4 S228P, kappa, V domains shown)
VH: B1 VH with D31E, N59L, N104D, T105D
VL: B1 VL with E27D, M37L
notes: hIgG4Pro/hIgK
B17: h15H11-22 (antibody, human IgG4 S228P, kappa, V domains shown)
VH: B1 VH with D31E, N104D
VL: B1 VL
notes: hIgG4Pro/hIgK
B18: h15H11-30 (antibody, human IgG4 S228P, kappa, V domains shown)
VH: B1 VH with N104D
VL: B1 VL with E27D, M37L
notes: hIgG4Pro/hIgK
B19: h15H11-20 (antibody, human IgG4 S228P, kappa, V domains shown)
VH: B1 VH with T105D
VL: B1 VL
notes: hIgG4Pro/hIgK
B20: h15H11-25 (antibody, human IgG4 S228P, kappa, V domains shown)
VH: B1 VH with D31E, N59L
VL: B1 VL
notes: hIgG4Pro/hIgK
B21: h15H11-10 (antibody, human IgG4 S228P, kappa, V domains shown)
VH: B1 VH with D31E, N59L, T105D
VL: B1 VL
notes: hIgG4Pro/hIgK
B22: h15H11-16 (antibody, human IgG4 S228P, kappa, V domains shown)
VH: B1 VH with D31E, T105D
VL: B1 VL
notes: hIgG4Pro/hIgK
B23: h15H11-29 (antibody, human IgG4 S228P, kappa, V domains shown)
VH: B1 VH with N59L
VL: B1 VL
notes: hIgG4Pro/hIgK
B24: h15H11-15 (antibody, human IgG4 S228P, kappa, V domains shown)
VH: B1 VH with N59L, N104D
VL: B1 VL
notes: hIgG4Pro/hIgK
B25: h15H11-23 (antibody, human IgG4 S228P, kappa, V domains shown)
VH: B1 VH with D31E, T105S
VL: B1 VL with E27D, M37L
notes: hIgG4Pro/hIgK
B26: h15H11-31 (antibody, human IgG4 S228P, kappa, V domains shown)
VH: B1 VH with D31E, N59Q, T105S
VL: B1 VL
notes: hIgG4Pro/hIgK
B27: h15H11-24 (antibody, human IgG4 S228P, kappa, V domains shown)
VH: B1 VH with D31E, N59Q, T105S
VL: B1 VL with E27D, M37L
notes: hIgG4Pro/hIgK
B28: h15H11-18 (antibody, human IgG4 S228P, kappa, V domains shown)
VH: B1 VH with T105D
VL: B1 VL with A25V, E27D, M37L
notes: hIgG4Pro/hIgK
B29: h15H11-4 (antibody, human IgG4 S228P, kappa, V domains shown)
VH: B1 VH with N59L, N104D, T105D
VL: B1 VL
notes: hIgG4Pro/hIgK
B30: h15H11-6 (antibody, human IgG4 S228P, kappa, V domains shown)
VH: B1 VH with N104D, T105D
VL: B1 VL with E27D, M37L
notes: hIgG4Pro/hIgK
B31: h15H11-28 (antibody, human IgG4 S228P, kappa, V domains shown)
VH: B1 VH with D31E, T105S
VL: B1 VL
notes: hIgG4Pro/hIgK
B32: h15H11-7 (antibody, human IgG4 S228P, kappa, V domains shown)
VH: B1 VH with D31E, N59L, T105D
VL: B1 VL with E27D, M37L
notes: hIgG4Pro/hIgK

Positions count from the first letter of the chain named. Names may count otherwise. Where no end group is shown, it is not given here.

The IC50 is the midpoint of a concentration-inhibition curve. Read a high IC50 as a need for much substance.

The target in the experiment is T1, epitope peptide Cys-CE3C long. Description: competitive ELISA, unlabeled vs biotin-labeled peptide, antibody on anti-human IgG plate. As for the experimental part: A diluted solution of the obtained recombinant humanized antibody, a biotin-labeled immunogen peptide, and Streptavidin-HRP (manufactured by PIERCE) were added to an anti-human IgG antibody-immobilized plate, and reacted overnight at 4° C. […] Next, a recombinant human antibody at the dilution rate, a biotin-labeled immunogen peptide, and Streptavidin-HRP (manufactured by PIERCE) were added. At the same time, a dilution series of unlabeled immunogenic peptide was added and reacted overnight at 4° C. After washing twice with ELISA wash buffer, TMB-Substrate Chromogen (manufactured by Thermo Fisher Scientific) was added to develop color, the reaction was stopped with an equal amount of 0.5N sulfuric acid, and the absorbance at 450 nm was measured. The concentration of the unlabeled peptide which attenuated the signal of the biotin-labeled peptide by half was defined as the affinity (IC50).
In general terms: An ELISA detects its analyte on a solid surface through an enzyme-linked reagent.
B1 displayed a half-inhibitory concentration (IC50) of 1.44 nM.

B2: the IC50 was determined as 0.8 nM.

In turn, B3 showed an IC50 of 0.62 nM.

B4 yielded an IC50 of 0.48 nM. The IC50 values of the last two molecules are within 1.5-fold of each other.

B5 displayed an IC50 of 0.61 nM.

B6: the IC50 was found to be 0.88 nM.

Consider B7, for which the IC50 stood at 0.74 nM.

In turn, B8 yielded an IC50 of 0.91 nM.

Molecule B9 came in with an IC50 of 0.7 nM.

In turn, B10 had an IC50 of 0.66 nM.

As for B11, the IC50 worked out at 0.5 nM. This IC50 and that of the molecule before are within 1.5-fold of each other.

Molecule B12 came in with a concentration for half-maximal inhibition (IC50) of 0.52 nM.

B13 showed an IC50 of 0.64 nM.

Regarding B14, the IC50 stood at 0.62 nM.

Molecule B15 registered an IC50 of 0.6 nM. The IC50 values of the last two molecules are within 1.5-fold of each other.

In turn, B16 returned an IC50 of 0.47 nM.

Regarding B17, the half-maximal inhibitory concentration (IC50) came to 0.8 nM.

As to B18, the IC50 was found to be 0.92 nM.

In turn, B19 gave an IC50 of 0.77 nM. The IC50 values of the last two molecules are within 1.5-fold of each other.

Take B20: the concentration for half-maximal inhibition (IC50) came to 0.86 nM.

Consider B21, for which the concentration for half-maximal inhibition (IC50) was 0.61 nM.

In turn, B22 registered an IC50 of 0.68 nM. The IC50 values of the last two molecules are within 1.5-fold of each other.

The molecule B23 came in with an IC50 of 0.91 nM.

The molecule B24 had a 50% inhibitory concentration (IC50) of 0.66 nM.

Turning to B25, the IC50 is 0.83 nM.

B26 had an IC50 of 0.93 nM. This IC50 and that of the molecule before are within 1.5-fold of each other.

As for B27, the IC50 turned out to be 0.85 nM. This IC50 and that of the molecule before are within 1.5-fold of each other.

B28: the half-maximal inhibitory concentration (IC50) was determined as 0.74 nM.

Molecule B29 came in with an IC50 of 0.51 nM.

Take B30: the IC50 was 0.57 nM. This IC50 and that of the molecule before are within 1.5-fold of each other.

With B31, the IC50 worked out at 0.91 nM.

As to B32, the IC50 came out at 0.58 nM.

For the origin of these results see patent US20250163145A1 (SHIONOGI, published 2025).
